Test results: article PMC5053906 (Neuron, 2016)

Target: the molecule itself
Assay: single molecule subunit counting

B1: C-terminally GFP-tagged mGluR2 (receptor, rat, UniProt P31421 19-872, looked up)
chain: EGPAKKVLTLEGDLVLGGLFPVHQKGGPAEECGPVNEHRGIQRLEAMLFALDRINRDPHLLPGVRLGAHILDSCSKDTHALEQALDFVRASLSRGADGSRHICPDGSYATHSDAPTAVTGVIGGSYSDVSIQVANLLRLFQIPQISYASTSAKLSDKSRYDYFARTVPPDFFQAKAMAEILRFFNWTYVSTVASEGDYGETGIEAFELEARARNICVATSEKVGRAMSRAAFEGVVRALLQKPSARVAVLFTRSEDARELLAATQRLNASFTWVASDGWGALESVVAGSERAAEGAITIELASYPISDFASYFQSLDPWNNSRNPWFREFWEERFHCSFRQRDCAAHSLRAVPFEQESKIMFVVNAVYAMAHALHNMHRALCPNTTHLCDAMRPVNGRRLYKDFVLNVKFDAPFRPADTDDEVRFDRFGDGIGRYNIFTYLRAGSGRYRYQKVGYWAEGLTLDTSFIPWASPSAGPLPASRCSEPCLQNEVKSVQPGEVCCWLCIPCQPYEYRLDEFTCADCGLGYWPNASLTGCFELPQEYIRWGDAWAVGPVTIACLGALATLFVLGVFVRHNATPVVKASGRELCYILLGGVFLCYCMTFVFIAKPSTAVCTLRRLGLGTAFSVCYSALLTKTNRIARIFGGAREGAQRPRFISPASQVAICLALISGQLLIVAAWLVVEAPGTGKETAPERREVVTLRCNHRDASMLGSLAYNVLLIALCTLYAFKTRKCPENFNEAKFIGFTMYTTCIIWLAFLPIFYVTSSDYRVQTTTMCVSVSLSGSVVLGCLFAPKLHIILFQPQKNVVSHRAPTSRFGSAAPRASANLGQGSGSQFVPTVCNGREVVDSTTSSL
stoichiometry N: 2
